Results taken from publication PMC6322289, “The formation and accumulation of protein-networks by physical interactions in the rapid occlusion of laticifer cells in rubber tree undergoing successive mechanical wounding” (BMC Plant Biology, 2019).

Molecular target: T1, β-1,3-glucanase (Hevea brasiliensis (endogenous in latex …, UniProt P52407 37-356))
T1 construct: β-1,3-glucanase of the lutoids (B-serum) of Hevea brasiliensis latex; two bands of about 35.5 and 41 kDa, both recognised by anti-glucanase and identified as β-1,3-glucanase by MALDI TOF MS; The preparation holds two forms (35.5 and 41 kDa); source: purified from B-serum of rubber tree latex (0-65% (NH4)2SO4, CM Sepharose Fast Flow); also unpurified in B-serum
T1 sequence (P52407 37-356): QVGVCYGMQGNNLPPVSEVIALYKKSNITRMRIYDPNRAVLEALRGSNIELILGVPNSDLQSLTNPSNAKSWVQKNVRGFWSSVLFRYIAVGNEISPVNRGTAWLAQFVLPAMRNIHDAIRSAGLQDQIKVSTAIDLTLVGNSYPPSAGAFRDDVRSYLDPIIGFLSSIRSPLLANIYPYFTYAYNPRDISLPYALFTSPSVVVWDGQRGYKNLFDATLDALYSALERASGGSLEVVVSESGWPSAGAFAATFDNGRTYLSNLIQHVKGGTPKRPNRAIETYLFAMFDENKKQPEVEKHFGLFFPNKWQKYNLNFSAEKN
Assay: SPR; Biacore 3000, 25 °C; β-1,3-glucanase amine-coupled to a CM5 chip (5000 RU); analytes flowed in HBS-EP pH 7.4 at 30 μL/min; multi-cycle kinetics, 1:1 Langmuir fit; apparent constants
Conditions: both partners purified

| Binder | Kd [µM] |
| --- | --- |
| EQCGRQAGGKLCPNNLCCSQWGWCGSTDEYCSPDHNCQSNCKD (natural protein, UniProt P02877 18-60, looked up, hevein, the N-terminal part split from pro-hevein, Hevea brasiliensis; runs at 10 kDa in Tricine-SDS-PAGE; source: purified from B-serum of rubber tree latex (85-95% (NH4)2SO4, Sephacryl S-200HR); also unpurified in B-serum) [hevein] | 87.9 |
| pro-hevein (natural protein, UniProt P02877 18-204, looked up, source: purified from B-serum of rubber tree latex (Sephacryl S-200HR); also unpurified in B-serum) EQCGRQAGGKLCPNNLCCSQWGWCGSTDEYCSPDHNCQSNCKDSGEGVGGGSASNVLATYHLYNSQDHGWDLNAASAYCSTWDANKPYSWRSKYGWTAFCGPVGAHGQSSCGKCLSVTNTGTGAKTTVRIVDQCSNGGLDLDVNVFRQLDTDGKGYERGHITVNYQFVDCGDSFNPLFSVMKSSVIN | 231 |
